± gives the standard deviation of the averaged measurements.
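Also: ATP exposure 15 min at 22 °C before imaging.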

In this series the test system is ATP. Kind of series: switch fluorescence ratio, 500 uM ATP over buffer (Cy3 cluster intensity, sum of 5 cycles each) (fold (ratio)); higher = stronger signal-on switching upon ATP binding; sequences stand for … in TCGTCGGCAGCGTCAGATGTGTATAAGAGACAGTTTTTTTTTTTTTTTTTTTTTTTTT…TC. The following applies: aptamer strand: ATP DNA aptamer (quencher-CACCTGGGGGAGTATTGCGGAGGAAGG + anchor), 100 nM annealed; ATP concentration: 500 uM. The essentials:
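Imaging in selection buffer was followed by imaging after 15 min with 500 uM ATP at 22 °C, for Cy3-labelled switching-strand clusters annealed to 100 nM quencher-labelled ATP aptamer on a modified Illumina MiSeq flow-cell. Five of these buffer/ATP cycles ran, separated by NaOH stripping and re-annealing. The fluorescence ratio per cluster is summed target-cycle over summed buffer-cycle Cy3 intensity, averaged per switch-domain sequence; clusters outside 100-1000 RFU were removed.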
For the sequence GACATGGGGC, the switch fluorescence ratio worked out at 1.04 ± 0.058. Take CGAGGGGCCC: the switch fluorescence ratio worked out at 1.01 ± 0.036.

As to AAATTTTTTG, the switch fluorescence ratio was 1 ± 0.023.

Take CAGTGTTATC: the switch fluorescence ratio is 1.01 ± 0.013.

TTGTTGGTTG: the switch fluorescence ratio came to 0.975 ± 0.034. On to GCCAGACGTG, for which the switch fluorescence ratio was determined as 0.995 ± 0.017. TACCGGGGTA: the switch fluorescence ratio came to 1.01 ± 0.03. Regarding CGGGAAGGTA, the switch fluorescence ratio was 0.981 ± 0.016. As to TTCTGGTTGT, the switch fluorescence ratio stood at 0.987 ± 0.046. Regarding GATTTGGTCT, the switch fluorescence ratio was 1.04 ± 0.035.

Consider GTAACTTTTT, for which the switch fluorescence ratio was found to be 1.056 ± 0.0034. Take CAAATTTAAG: the switch fluorescence ratio was determined as 0.982 ± 0.028. As for GGTGGTGGGC, the switch fluorescence ratio was determined as 0.954 ± 0.01. Consider AATAAGCTCG, for which the switch fluorescence ratio was 0.9792 ± 0.0018.

For the sequence TTTGTGAGGA, the switch fluorescence ratio is 0.996 ± 0.034.

In the case of TTAGATTTTT, the switch fluorescence ratio was found to be 1.002 ± 0.0087.

Regarding TACGGAGTGG, the switch fluorescence ratio was 1.06 ± 0.026.

For ACGCGATATG, the switch fluorescence ratio is 1.253 ± 0.01. With TTTTCATTAC, the switch fluorescence ratio was 1.26 ± 0.069. For the sequence ACACCTAAAC, the switch fluorescence ratio stood at 1.065 ± 0.0096. For TCGAATGT, the switch fluorescence ratio came to 1.01 ± 0.012. Regarding TCAATGATGG, the switch fluorescence ratio turned out to be 1 ± 0.0046.

TGGGTCGTGC: the switch fluorescence ratio was 0.99 ± 0.011. On to GGAACAGGTG, for which the switch fluorescence ratio worked out at 3.49 ± 2. On to CGAGGGTCCG, for which the switch fluorescence ratio came to 0.99899 ± 0.00035. Take TGTTCTTATA: the switch fluorescence ratio was 0.993 ± 0.026. Under TTGTGGGGAG stands 0.97 ± 0.024. On to GCAATGGTGG, for which the switch fluorescence ratio was determined as 1.04 ± 0.035.

With GGCAGAATAA, the switch fluorescence ratio amounted to 1.05 ± 0.13. Turning to CGTAGGGGTA, the switch fluorescence ratio is 1.11 ± 0.32. TTGGAAGGGC: the switch fluorescence ratio came to 1.012 ± 0.0063. As for CGTTTCACTA, the switch fluorescence ratio was 0.9736 ± 0.0019. As to GGGGGTGATC, the switch fluorescence ratio was 0.979 ± 0.024.

Regarding AAGTCGATTG, the switch fluorescence ratio is 0.99 ± 0.017. Under TGTTGATCAG stands 0.982 ± 0.03; under TAAAAGATCG, 1.03 ± 0.034. As to CGATGCTGGT, the switch fluorescence ratio was found to be 1.02 ± 0.053.

Regarding AAAAATATTT, the switch fluorescence ratio came out at 1.61 ± 0.86. Under TAAAGCTGCT stands 0.9705 ± 0.0071; under ATGTTCTCAA, 0.998 ± 0.01; under GCGTTGTCTG, 0.982 ± 0.068. Under GACCTAGTGT stands 1.03 ± 0.019; under ATGTTCCTAC, 1.04 ± 0.011. The value for CCAAAGTATA was 1.166 ± 0.0013; that for GCGTAAGGCC was 1.14 ± 0.21. Regarding TTAAGCGGAG, the switch fluorescence ratio is 1.0092 ± 0.00077.

GGACGGGGGG: the switch fluorescence ratio was 1.01 ± 0.056. On to GACATAGGGT, for which the switch fluorescence ratio turned out to be 0.994 ± 0.025.

For CACTCTAGGC, the switch fluorescence ratio was found to be 1.07 ± 0.02.

Regarding GTTTGTTGTT, the switch fluorescence ratio was 0.9819 ± 0.0016.

For the sequence TTTTCAACAC, the switch fluorescence ratio was 1.04 ± 0.033. For the sequence CTTTTAATAG, the switch fluorescence ratio was found to be 1.08 ± 0.057. For GCGATGGATA, the switch fluorescence ratio was determined as 0.96 ± 0.056. In the case of TTCATAGGCA, the switch fluorescence ratio is 1 ± 0.039. ATTTCTCAGG: the switch fluorescence ratio was 1.07 ± 0.017. As to GACTTTGAAT, the switch fluorescence ratio was determined as 1.014 ± 0.0089. Turning to TATGTCGCCA, the switch fluorescence ratio was 1.01 ± 0.024. In the case of TTCGACCGTG, the switch fluorescence ratio came out at 0.997 ± 0.033. As for TTATAAGTGG, the switch fluorescence ratio was determined as 0.9907 ± 0.0072. For the sequence TTAGGGATTG, the switch fluorescence ratio turned out to be 1 ± 0.03. The value for GAACGGCCGG was 1.004 ± 0.0092.

On to ATTGGATAAT, for which the switch fluorescence ratio is 0.9967 ± 0.0091. With ACGCTAAATA, the switch fluorescence ratio turned out to be 1.26 ± 0.03.

On to CTGTCGACTG, for which the switch fluorescence ratio is 1.04 ± 0.017. Take ATAGGTAGGC: the switch fluorescence ratio worked out at 1.05 ± 0.072.

GAGTCGGTGG: the switch fluorescence ratio came out at 1.4 ± 0.63. Under AAGTCCGGGG stands 0.9698 ± 0.0013; under GGTGAAGGCA, 1 ± 0.023.

As for AGCGTTGAGT, the switch fluorescence ratio came out at 0.985 ± 0.032.

On to ACCGGCCAGC, for which the switch fluorescence ratio stood at 1.002 ± 0.004.

In the case of TACAGAATCG, the switch fluorescence ratio was 1.014 ± 0.0014. With TTAGAAAGCA, the switch fluorescence ratio was determined as 1 ± 0.033. Consider CTACATGTAA, for which the switch fluorescence ratio stood at 1.03 ± 0.081. As for TGTTTATAAT, the switch fluorescence ratio was 0.99 ± 0.013. CGGGGCACTG: the switch fluorescence ratio turned out to be 0.997 ± 0.018. As to ATATGATATC, the switch fluorescence ratio stood at 1.03 ± 0.062. The value for ATGTGCTGGG was 0.981 ± 0.031. On to CGCTCATCTG, for which the switch fluorescence ratio came out at 0.968 ± 0.052.

Values taken from the supplement of paper PMC10126150.
